# ± gives the uncertainty stated by the source.
# Assay: protein stability index of a GFP-peptide fusion (yeast GPS) (PSI 1-4); higher = more stable; sorted into four equal gates, so the index is relative within each strain
# Conditions: doa10∆
# How it was run: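 Peptides tiling yeast proteins in 17-residue segments were fused downstream of GFP, with Cherry expressed from the same plasmid. As a pooled library in yeast, mid-log cultures grown in leucine-free medium were sorted into four equal gates by GFP/Cherry fluorescence ratio. Gate plasmids were PCR-amplified and Illumina-sequenced, and barcodes linked reads to strains. Each peptide received a protein stability index equal to the sum of each gate's read frequency times its gate number.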
row,Sequence,protein stability index
1,IYATFLNESDCLEACSF [YDL116W/NUP84],2.56 ± 0.091
2,KAAFEDLKSKGLIPADA [FAS1],3 ± 0.09
3,KADAQREKALNEEAEAR [RPL19A],3.22 ± 0.083
4,KAELEKQKSWVPSYIHV [YIL149C/MLP2],2.09 ± 0.052
5,KAISVGANTSAAQTLLQ [PRE9],2.74 ± 0.054
6,KAKVDDLVLGKPLADLR [YLR335W/NUP2],3.23 ± 0.25
7,KALRRKIYINLALGSHN [SSN2],3.05 ± 0.21
8,KAPLQPNSERETDHANT [IRR1],2.6 ± 0.083
9,KAPTKLDDPEAVSKDPL [DIS3],3.35 ± 0.089
10,KARSPGIAKPNAIQTEV [SIR4],3.36 ± 0.067
11,KASKEIKKVICGAWEPA [SIR3],2.15 ± 0.25
12,KASVTIVFDNTDKSNSP [SMC2],2.99 ± 0.045
13,KAVKLRKSYKNQIADLS [ROX3],2.74 ± 0.1
14,KCLNYRNVNWIERLTKR [ITC1],2.91 ± 0.084
15,KCLVEKSICFENCLNND [SWI1],1.81 ± 0.097
16,KCQELVTNIRRIIQDNI [RRP46],2.5 ± 0.15
17,KCSATNRIIKADDHASV [RPS21A],2.92 ± 0.053
18,KDAISFIKEIHKSIELI [YCS4],2 ± 0.066
19,KDAQKKDIEKLTNEISD [YIL149C/MLP2],2.54 ± 0.086
20,KDENNTANDQYSSILGN [YCG1],3.02 ± 0.047
21,KDEYLAQLDGRIGVLQA [NSL1],2.08 ± 0.064
22,KDFIENVNNRFDNFLTE [BRN1],3.06 ± 0.086
23,KDFVTMAIEIINDIRDD [YCG1],1.85 ± 0.12
24,KDGEDIIFNYVPGPGTK [CSL4],2.56 ± 0.17
25,KDGGDKPPSSAFNFSFN [YAR002W/NUP60],3.18 ± 0.066
26,KDGLKLVGSWKKDRATG [RPO21],3.58 ± 0.2
27,KDHLLGRLASTIAKQVL [RPL16B],1.66 ± 0.085

row,Sequence,protein stability index
1,KDIEKLTNEISDLKGKL [YIL149C/MLP2],3.04 ± 0.11
2,KDIKANLSSNVNFTEIG [YCS4],2.83 ± 0.043
3,KDIRSTLASLIRYNSVE [RPC82],2.67 ± 0.14
4,KDLDGWQVIITDDQGRV [SIR3],3.15 ± 0.093
5,KDLKEILSGFHNAGPVA [RPP1B],2.93 ± 0.057
6,KDLVKNNVSFNAKDIQI [FAS1],2.46 ± 0.041
7,KDPVDFVRQAAMIALSM [RPN2],1.42 ± 0.082
8,KDRLYCGKCHSVYKVNA [RPS31],1.49 ± 0.086
9,KEAAAIAEGKSKQDASP [RPL8B],2.96 ± 0.1
10,KEAAAVAEGKSKQDASP [RPL8A],3.22 ± 0.085
11,KEDADLKRMEILKSPHL [SIR4],2.88 ± 0.053
12,KEECQIEDDGIIESHLI [CSN9],3.59 ± 0.25
13,KEELLRDGVLTVTLNKN [RRP45],1.78 ± 0.054
14,KELDALQEKEQLYFKKK [ISW2],3.22 ± 0.11
15,KELQQLQKQILTVENKL [SMC1],1.74 ± 0.081
16,KELQYDNEQNLESDFVT [PRE2],2.93 ± 0.092
17,KENELLFGEKSILGKFC [YCS4],1.55 ± 0.04
18,KERIIRAFLIEEQKIVK [RPL34A],3.06 ± 0.082
19,KEVIELPVKHPELFESL [RPT6],2.98 ± 0.064
20,KEVSSFLMGIFNSVVNL [MTR3],2.83 ± 0.057
21,KEYQCSAVIIDEFKDIT [YIL149C/MLP2],2.46 ± 0.065
22,KFEPLYPREEEEDYNEF [PRP8],3.35 ± 0.15
23,KFFTQSNLEKLPKYKEK [MED7],2.43 ± 0.046
24,KFILQILQILNLMILNT [YML103C/NUP188],1.3 ± 0.081
25,KFKDMGIRAPKGALMYG [RPT5],3.01 ± 0.13
26,KFLKIASLKHDNETKAM [RPN3],2.75 ± 0.1
27,KFPATNVTTILDEIFSG [ECM29],2.54 ± 0.078

row,Sequence,protein stability index
1,KFQGVLESEAQKKATMS [RPC34],3.54 ± 0.18
2,KFQLQNQLEDFILELEH [YIL149C/MLP2],2.72 ± 0.081
3,KFTIEPGVLPVGIDTHT [SNF2],2.75 ± 0.12
4,KGALMYGPPGTGKTLLA [RPT5],2.18 ± 0.074
5,KGETNSEISIIDATLKE [RRP45],2.92 ± 0.074
6,KGKKGQKKRVVDPFTRK [RPS1A],3.25 ± 0.13
7,KGKKYQPKDLRAKKTRA [RPL35A],2.85 ± 0.25
8,KGPIIISKNPSNGIFYG [SIR2],2.74 ± 0.067
9,KGPLLIERIGHLLSINY [PCI8],2.35 ± 0.11
10,KGQGPFTLTYDIIETFS [YMR129W/POM152],1.95 ± 0.045
11,KGRKTNKYANNDFANNL [CSL4],3.28 ± 0.066
12,KGRSYAYFMVGAMGLLS [RIP1],2.39 ± 0.11
13,KGYVFKISGGNDKQGFP [RPS6A],2.62 ± 0.068
14,KHGAVHMSTYLKIYKVG [RPL21B],1.65 ± 0.042
15,KHHQLFYMLNAGIRPKF [RPN1],2.23 ± 0.17
16,KHLEDNTLLISGPFKVN [RPL6A],1.83 ± 0.085
17,KHWQERVKVHFDQAGKK [RPL13A],2.31 ± 0.046
18,KIEFPLPSEDSRAQILQ [RPT5],3.39 ± 0.15
19,KIGDLGLARKFHNMLQT [SSN3],2.9 ± 0.085
20,KIIEDLRQKHEFLEDFD [SMC2],2.96 ± 0.097
21,KIKDNKEKIKNNRQLPY [RPT5],3.23 ± 0.12
22,KIKHGSVTEIPLKLSGE [YMR129W/POM152],2.77 ± 0.07
23,KILSILNRSHFATTKAE [ECM29],2.68 ± 0.076
24,KIRRHPNIMLIFGSGFG [FAS1],1.9 ± 0.057
25,KISLLRPSFQNNRISNA [SWP82],2.46 ± 0.042

# Same assay, conditions: pdr5∆
row,Sequence,protein stability index
1,IYATFLNESDCLEACSF [YDL116W/NUP84],2.85 ± 0.087
2,KAAFEDLKSKGLIPADA [FAS1],3.29 ± 0.1
3,KADAQREKALNEEAEAR [RPL19A],3.45 ± 0.2
4,KAELEKQKSWVPSYIHV [YIL149C/MLP2],2.33 ± 0.041
5,KAISVGANTSAAQTLLQ [PRE9],2.92 ± 0.052
6,KAKVDDLVLGKPLADLR [YLR335W/NUP2],3.56 ± 0.21
7,KALRRKIYINLALGSHN [SSN2],2.76 ± 0.15
8,KAPLQPNSERETDHANT [IRR1],2.98 ± 0.062
9,KAPTKLDDPEAVSKDPL [DIS3],3.45 ± 0.12
10,KARSPGIAKPNAIQTEV [SIR4],3.35 ± 0.092
11,KASVTIVFDNTDKSNSP [SMC2],3.02 ± 0.044
12,KAVKLRKSYKNQIADLS [ROX3],2.85 ± 0.07
13,KCLNYRNVNWIERLTKR [ITC1],3.07 ± 0.052
14,KCLVEKSICFENCLNND [SWI1],2.67 ± 0.057
15,KCQELVTNIRRIIQDNI [RRP46],2.81 ± 0.1
16,KCSATNRIIKADDHASV [RPS21A],2.96 ± 0.053
17,KDAISFIKEIHKSIELI [YCS4],2.81 ± 0.065
18,KDAQKKDIEKLTNEISD [YIL149C/MLP2],2.98 ± 0.07
19,KDENNTANDQYSSILGN [YCG1],3.2 ± 0.046
20,KDEYLAQLDGRIGVLQA [NSL1],2.4 ± 0.046
21,KDFIENVNNRFDNFLTE [BRN1],3.04 ± 0.093
22,KDFVTMAIEIINDIRDD [YCG1],1.7 ± 0.16
23,KDGEDIIFNYVPGPGTK [CSL4],2.53 ± 0.11
24,KDGGDKPPSSAFNFSFN [YAR002W/NUP60],3.22 ± 0.054
25,KDHLLGRLASTIAKQVL [RPL16B],1.57 ± 0.092
26,KDIEKLTNEISDLKGKL [YIL149C/MLP2],3.12 ± 0.049

row,Sequence,protein stability index
1,KDIKANLSSNVNFTEIG [YCS4],2.74 ± 0.051
2,KDIRSTLASLIRYNSVE [RPC82],2.13 ± 0.086
3,KDLDGWQVIITDDQGRV [SIR3],3.03 ± 0.077
4,KDLKEILSGFHNAGPVA [RPP1B],2.75 ± 0.062
5,KDLVKNNVSFNAKDIQI [FAS1],2.62 ± 0.061
6,KDPVDFVRQAAMIALSM [RPN2],2.21 ± 0.14
7,KDRLYCGKCHSVYKVNA [RPS31],2.26 ± 0.1
8,KEAAAIAEGKSKQDASP [RPL8B],3.35 ± 0.083
9,KEAAAVAEGKSKQDASP [RPL8A],3.29 ± 0.056
10,KEDADLKRMEILKSPHL [SIR4],2.95 ± 0.077
11,KEECQIEDDGIIESHLI [CSN9],3.23 ± 0.14
12,KEELLRDGVLTVTLNKN [RRP45],2.11 ± 0.06
13,KELDALQEKEQLYFKKK [ISW2],3.15 ± 0.14
14,KELQQLQKQILTVENKL [SMC1],1.99 ± 0.063
15,KELQYDNEQNLESDFVT [PRE2],3.16 ± 0.075
16,KENELLFGEKSILGKFC [YCS4],1.72 ± 0.051
17,KERIIRAFLIEEQKIVK [RPL34A],2.26 ± 0.087
18,KEVIELPVKHPELFESL [RPT6],3.04 ± 0.036
19,KEVSSFLMGIFNSVVNL [MTR3],2.91 ± 0.049
20,KEYQCSAVIIDEFKDIT [YIL149C/MLP2],2.75 ± 0.065
21,KFEPLYPREEEEDYNEF [PRP8],3.31 ± 0.13
22,KFFTQSNLEKLPKYKEK [MED7],2.7 ± 0.048
23,KFILQILQILNLMILNT [YML103C/NUP188],1.29 ± 0.064
24,KFKDMGIRAPKGALMYG [RPT5],3.46 ± 0.19
25,KFLKIASLKHDNETKAM [RPN3],3.16 ± 0.13
26,KFPATNVTTILDEIFSG [ECM29],2.93 ± 0.066

row,Sequence,protein stability index
1,KFQGVLESEAQKKATMS [RPC34],3.01 ± 0.18
2,KFQLQNQLEDFILELEH [YIL149C/MLP2],1.95 ± 0.099
3,KFTIEPGVLPVGIDTHT [SNF2],2.61 ± 0.14
4,KGALMYGPPGTGKTLLA [RPT5],2.24 ± 0.069
5,KGETNSEISIIDATLKE [RRP45],3.08 ± 0.068
6,KGKKGQKKRVVDPFTRK [RPS1A],3.69 ± 0.18
7,KGKKYQPKDLRAKKTRA [RPL35A],2.98 ± 0.14
8,KGPIIISKNPSNGIFYG [SIR2],2.5 ± 0.061
9,KGPLLIERIGHLLSINY [PCI8],2.71 ± 0.15
10,KGQGPFTLTYDIIETFS [YMR129W/POM152],2.31 ± 0.064
11,KGRKTNKYANNDFANNL [CSL4],3.14 ± 0.053
12,KGRSYAYFMVGAMGLLS [RIP1],2.82 ± 0.12
13,KGYVFKISGGNDKQGFP [RPS6A],2.89 ± 0.071
14,KHGAVHMSTYLKIYKVG [RPL21B],1.52 ± 0.043
15,KHHQLFYMLNAGIRPKF [RPN1],2.04 ± 0.085
16,KHLEDNTLLISGPFKVN [RPL6A],2.01 ± 0.072
17,KHWQERVKVHFDQAGKK [RPL13A],2.33 ± 0.047
18,KIEFPLPSEDSRAQILQ [RPT5],3.18 ± 0.13
19,KIGDLGLARKFHNMLQT [SSN3],3.14 ± 0.1
20,KIIEDLRQKHEFLEDFD [SMC2],2.54 ± 0.077
21,KIKDNKEKIKNNRQLPY [RPT5],3.24 ± 0.16
22,KIKHGSVTEIPLKLSGE [YMR129W/POM152],2.93 ± 0.057
23,KILSILNRSHFATTKAE [ECM29],2.33 ± 0.048
24,KIRRHPNIMLIFGSGFG [FAS1],2.07 ± 0.061

# Reference: the supplement of paper PMC9732359
